Assay results from publication PMC10002499 (2023).

Biological target: PDCD6 (ALG-2) construct (rat, UniProt G3V7W1 1-191)
Experiment: SPR; 0 added Ca2+

Chain of PDCD6 (ALG-2) construct (G3V7W1 whole entry): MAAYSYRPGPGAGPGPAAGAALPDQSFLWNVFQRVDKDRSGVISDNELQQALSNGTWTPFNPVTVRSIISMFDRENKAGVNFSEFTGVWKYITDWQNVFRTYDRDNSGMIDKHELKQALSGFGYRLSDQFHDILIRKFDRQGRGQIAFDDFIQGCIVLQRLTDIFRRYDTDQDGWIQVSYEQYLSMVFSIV

- Kd: 160 nM
B1: dysferlin extended C2DE region (aa 1284-1576) (domain or fragment)
chain: AIHHIPGFEMHETSRILDETEDTDLPYPPPQREANIYMVPQNIKPALQRTAIEILAWGLRNIKSYQMASVSSPSLVVECGGQTVQSCVIRNLRKNPNFDVCTLFMEVMLPREDLYCPPIVVKVIDNRQFGRRPVVGQCTIRSLENFLCDPYSAESPSPQGGPDDVSLLSPGEDVLIDIDDKEPLIPVQEEEFIDWWSKFFASIGEREKCGSYLEKDFDTLKVYDTQLENVEAFGGLSDFCNTFKLYRGKTQEDTEDPSVIGEFKGLFKIYPLPEDPAIPMPPRQFHQLAAQGP
